According to patent US6252057:

Target: PP1C in 3T3-L1 adipocyte lysates (mouse (endogenous in 3T3-L1 adipocytes))
Assay: GST-PTG added to 3T3-L1 adipocyte lysates, fractionation, PP1 activity in the glycogen pellet

In the case of GST-PTG fusion protein, the fold increase in the PP1 activity sedimenting with the glycogen pellet is reported as 8 fold.
